Experiments:
[1] = molecular target: T1, TIM3_rd3.22 HE (I-OnuI variant) (Artificial (I-OnuI from Ophiostoma …)); assay: flow; yeast surface display substrate titration; stated as subnanomolar affinity; conditions: tags: yeast surface display
T1 chain: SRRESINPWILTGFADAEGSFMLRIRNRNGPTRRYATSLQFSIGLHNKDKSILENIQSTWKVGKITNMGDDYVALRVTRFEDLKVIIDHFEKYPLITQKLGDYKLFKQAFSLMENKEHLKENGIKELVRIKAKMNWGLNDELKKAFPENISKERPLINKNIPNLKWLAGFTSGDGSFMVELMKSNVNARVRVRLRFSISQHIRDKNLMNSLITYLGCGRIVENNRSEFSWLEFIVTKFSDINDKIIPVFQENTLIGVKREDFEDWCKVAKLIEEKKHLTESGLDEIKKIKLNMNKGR

[2] = molecular target: T2, TIM3_rd3.22 HE (I-OnuI variant), mammalian expression (Artificial (I-OnuI from Ophiostoma …)); assay: cell_activity; HEK293T chromosomal mCherry reporter; approx 4-fold higher rate of mCherry cells after refinement
T2 chain: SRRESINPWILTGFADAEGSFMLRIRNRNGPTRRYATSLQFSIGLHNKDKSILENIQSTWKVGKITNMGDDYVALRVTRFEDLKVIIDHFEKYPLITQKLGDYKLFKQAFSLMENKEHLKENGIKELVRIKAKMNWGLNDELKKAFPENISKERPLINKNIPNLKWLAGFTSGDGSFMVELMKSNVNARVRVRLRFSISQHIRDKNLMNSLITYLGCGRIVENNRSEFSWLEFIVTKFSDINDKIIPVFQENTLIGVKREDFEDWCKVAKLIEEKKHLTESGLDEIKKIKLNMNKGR
Description: The activity of reprogrammed I-OnuI HEs that target exon 2 of the TIM3 gene was measured using a chromosomally integrated fluorescent reporter system (Certo et. al., 2011). Fully reprogrammed I-OnuI HEs that bind and cleave the TIM3 target sequence were cloned into mammalian expression plasmids and then individually transfected into a HEK 293T […] cell line that was reprogrammed to contain the TIM3 target sequence upstream of an out-of-frame gene encoding the fluorescent mCherry protein. Cleavage of the embedded target site by the HE and the subsequent accumulation of small insertions or deletions, caused by DNA repair via the non-homologous end joining (NHEJ) pathway, results in approximately one out of three repaired loci placing the fluorescent reporter gene back “in-frame”. mCherry fluorescence is therefore a readout of endonuclease activity at the chromosomally embedded target sequence. […] FIG. 3 (top panel).
A secondary I-OnuI variant library was generated by performing random mutagenesis on one of the reprogrammed I-OnuI HEs that targets the TIM3 target site identified in the initial reporter screen (TIM3_rd1.12, SEQ ID NO: 6). In addition, display-based flow sorting was performed under more stringent cleavage conditions in an effort to isolate variants with improved catalytic efficiency. FIG. 3 (middle panel). […]

B1: TIM3 exon 2 HE target site (dsDNA)
DNA 1: TGTCCAATAATTCACATCCCTT
DNA 2: AAGGGATGTGAATTATTGGACA
B1 showed a Kd [1] of less than 1 nM and an activity [2] of roughly 4 fold.

— patent publication US20190262398, “TIM3 HOMING ENDONUCLEASE VARIANTS, COMPOSITIONS, AND METHODS OF USE” (bluebird bio, Inc., published 2019)
